Key:
Test in all cases: fluorescence polarization; 5 mM Mg2+; FP: 20 mM HEPES-KOH pH 7.5, 200 mM NaCl, 5 mM MgCl2, 0.01 mg/ml E. coli total tRNA, 0.01% NP-40, 10 pM probe, 25 C; EMSA: 20 mM HEPES-KOH pH 7.5, 200 mM NaCl, 5
RsAgo Y463A/K467A = biological target: T1, RsAgo Y463A/K467A (Rhodobacter sphaeroides (ATCC 17025D-5), UniProt A4WYU7 1-777, Y463A;K467A)
T1 sequence: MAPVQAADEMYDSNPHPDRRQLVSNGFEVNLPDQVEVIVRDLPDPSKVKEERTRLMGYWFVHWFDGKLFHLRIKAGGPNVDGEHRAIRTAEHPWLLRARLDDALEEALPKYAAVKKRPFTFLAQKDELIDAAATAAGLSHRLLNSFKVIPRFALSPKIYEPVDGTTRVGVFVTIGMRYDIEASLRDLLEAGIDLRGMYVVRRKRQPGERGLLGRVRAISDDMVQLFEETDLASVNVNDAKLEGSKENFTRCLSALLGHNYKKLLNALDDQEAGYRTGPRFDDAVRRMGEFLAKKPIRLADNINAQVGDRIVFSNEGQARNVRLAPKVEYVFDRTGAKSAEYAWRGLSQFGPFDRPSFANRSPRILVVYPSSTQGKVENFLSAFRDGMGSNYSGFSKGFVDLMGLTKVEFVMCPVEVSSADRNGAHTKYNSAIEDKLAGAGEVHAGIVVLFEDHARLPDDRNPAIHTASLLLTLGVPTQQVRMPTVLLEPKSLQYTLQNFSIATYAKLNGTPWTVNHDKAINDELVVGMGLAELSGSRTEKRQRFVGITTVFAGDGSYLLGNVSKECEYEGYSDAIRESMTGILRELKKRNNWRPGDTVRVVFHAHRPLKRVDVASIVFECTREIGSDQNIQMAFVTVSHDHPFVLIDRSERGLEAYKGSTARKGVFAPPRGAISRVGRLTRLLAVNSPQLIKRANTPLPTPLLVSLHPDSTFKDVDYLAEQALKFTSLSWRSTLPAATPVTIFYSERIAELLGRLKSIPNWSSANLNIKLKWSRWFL

RsAgo R481A/T484A = biological target: T2, RsAgo R481A/T484A (Rhodobacter sphaeroides (ATCC 17025D-5), UniProt A4WYU7 1-777, R481A;T484A)
T2 sequence: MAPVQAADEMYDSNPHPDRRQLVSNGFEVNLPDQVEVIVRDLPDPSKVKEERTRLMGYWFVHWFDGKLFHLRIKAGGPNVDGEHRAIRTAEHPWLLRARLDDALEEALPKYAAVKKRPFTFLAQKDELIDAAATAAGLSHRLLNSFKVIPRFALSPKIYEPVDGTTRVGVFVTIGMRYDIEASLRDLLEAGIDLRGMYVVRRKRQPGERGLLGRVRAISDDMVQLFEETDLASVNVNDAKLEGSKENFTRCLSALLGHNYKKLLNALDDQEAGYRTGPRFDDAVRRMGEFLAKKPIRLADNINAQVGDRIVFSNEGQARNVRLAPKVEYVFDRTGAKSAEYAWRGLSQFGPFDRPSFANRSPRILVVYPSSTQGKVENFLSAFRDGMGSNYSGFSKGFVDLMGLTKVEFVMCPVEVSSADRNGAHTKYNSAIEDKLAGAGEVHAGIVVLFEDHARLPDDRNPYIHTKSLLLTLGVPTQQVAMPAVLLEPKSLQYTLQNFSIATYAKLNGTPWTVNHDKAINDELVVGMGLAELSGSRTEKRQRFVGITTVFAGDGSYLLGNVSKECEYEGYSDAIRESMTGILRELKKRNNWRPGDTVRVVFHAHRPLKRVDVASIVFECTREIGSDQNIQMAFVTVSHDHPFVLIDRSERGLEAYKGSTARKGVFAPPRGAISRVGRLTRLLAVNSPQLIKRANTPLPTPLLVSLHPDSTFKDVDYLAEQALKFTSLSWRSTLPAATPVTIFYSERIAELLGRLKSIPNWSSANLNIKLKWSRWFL

RsAgo delL777 = biological target: T3, RsAgo delL777 (Rhodobacter sphaeroides (ATCC 17025D-5), UniProt A4WYU7 1-776, del777-777)
T3 sequence: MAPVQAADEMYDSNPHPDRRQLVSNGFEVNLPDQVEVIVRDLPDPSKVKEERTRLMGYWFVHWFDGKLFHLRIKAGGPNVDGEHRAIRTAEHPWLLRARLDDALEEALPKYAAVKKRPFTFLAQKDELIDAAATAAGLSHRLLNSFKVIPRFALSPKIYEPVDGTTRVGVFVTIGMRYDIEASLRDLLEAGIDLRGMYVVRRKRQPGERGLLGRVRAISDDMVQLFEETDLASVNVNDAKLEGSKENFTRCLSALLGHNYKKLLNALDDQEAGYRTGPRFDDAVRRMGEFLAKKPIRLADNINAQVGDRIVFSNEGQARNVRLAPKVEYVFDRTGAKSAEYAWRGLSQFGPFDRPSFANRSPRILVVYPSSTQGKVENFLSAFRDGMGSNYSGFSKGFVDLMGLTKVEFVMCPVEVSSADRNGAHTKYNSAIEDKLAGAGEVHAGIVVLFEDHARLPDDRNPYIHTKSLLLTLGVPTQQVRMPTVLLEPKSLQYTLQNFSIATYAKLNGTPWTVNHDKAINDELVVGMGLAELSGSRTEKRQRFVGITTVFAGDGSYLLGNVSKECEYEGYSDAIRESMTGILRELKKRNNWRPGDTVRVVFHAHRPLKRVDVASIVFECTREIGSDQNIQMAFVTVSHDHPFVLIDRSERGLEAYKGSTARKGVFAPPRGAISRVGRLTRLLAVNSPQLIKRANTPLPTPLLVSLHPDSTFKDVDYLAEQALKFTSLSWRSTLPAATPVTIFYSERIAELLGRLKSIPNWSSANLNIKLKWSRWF

B1: 5'P-RNA (5'U-RNA), FAM (ssRNA)
RNA: UUACAACCUACUACCUCG
modifications: 5'-phosphate
B1 was tested, and the Kd (RsAgo Y463A/K467A) was 1700 ± 123 nM, the Kd (RsAgo R481A/T484A) was 718 ± 36 nM and the Kd (RsAgo delL777) was 38.7 ± 2.1 nM.

Source: paper PMC4919518
